Data published in US20090022728A1 (RINAT NEUROSCIENCE, published 2009).

Legend:
Aβ1-42 peptide = biological target: T1, Aβ1-42 peptide; assay: ELISA, nonbiotinylated peptide on plate
T1 construct: also called 1-42 (WT)
Method: (§1) ELISA was used for measuring binding of antibody 6G and variants to nonbiotinylated Aβ peptides. NUNC maxisorp plates were coated with 2.5 ug/ml of Aβ peptides in PBS pH 7.4 for more than 1 hour at 4° C. Plates were blocked with 1% BSA in PBS buffer pH 7.4. Primary antibody (from cell supernatants, serum containing anti-Aβ antibody, or purified full antibody or Fabs at desired dilution) was incubated with the immobilized Aβ peptides for 1 h at room temperature. After washing, the plates were incubated with secondary antibody, a HRP conjugated goat anti-human kappa chain antibody (MP Biomedicals, 55233) at 1:5000 dilution. After washing, bound secondary antibody was measured by adding TMB substrate (KPL, 50-76-02, 50-65-02). The HRP reaction was stopped by adding 1M phosphoric acid and absorbance at 450 nm was measured.
(§2) All amino acid substitutions of the variants shown in Table 8 are described relative to the sequence of 6G. Binding was determined by ELISA described above with nonbiotinylated Aβ₁₋₄₀ or Aβ₁₋₄₂ immobilized on the surface of an ELISA plate.

Aβ1-40 peptide = biological target: T2, Aβ1-40 peptide; assay: ELISA, nonbiotinylated peptide on plate
T2 construct: synthetic peptide, not biotinylated; also called 1-40 (WT); beta amyloid 1-40
Method: as §1, §2

T1 sequence (peptide, as listed by the source): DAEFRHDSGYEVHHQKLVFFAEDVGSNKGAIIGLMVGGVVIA
T2 sequence (peptide, as listed by the source): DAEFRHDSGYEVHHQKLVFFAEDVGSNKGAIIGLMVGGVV

Binder | A450 ELISA (Aβ1-42 peptide) [A450] | A450 ELISA (Aβ1-40 peptide) [A450]
6G heavy chain variant 3C (D103G) (antibody, V domains shown) VH: QVQLVQSGAEVKKPGASVKVSCKASGYTFTTYAIHWVRQAPGQGLEWMGFTSPYSGVSNYNQKFKGRVTMTRDTSTSTVYMELSSLRSEDTAVYYCARFDNYGRGYVRDYWGQGTLVTVS VL: DIVMTQSPDSLAVSLGERATINCRASESVDNDRISFLNWYQQKPGQPPKLLIYAATKQGTGVPDRFSGSGSGTDFTLTISSLQAEDVAVYYCQQSKEFPWSFGGGTKVEIKR | 0.76 | 2.3
6G heavy chain variant 4B (R104F) (antibody, V domains shown) VH: QVQLVQSGAEVKKPGASVKVSCKASGYTFTTYAIHWVRQAPGQGLEWMGFTSPYSGVSNYNQKFKGRVTMTRDTSTSTVYMELSSLRSEDTAVYYCARFDNYDFGYVRDYWGQGTLVTVS VL: DIVMTQSPDSLAVSLGERATINCRASESVDNDRISFLNWYQQKPGQPPKLLIYAATKQGTGVPDRFSGSGSGTDFTLTISSLQAEDVAVYYCQQSKEFPWSFGGGTKVEIKR | 0.71 | 2.48
6G heavy chain variant 11D (Y102M) (antibody, V domains shown) VH: QVQLVQSGAEVKKPGASVKVSCKASGYTFTTYAIHWVRQAPGQGLEWMGFTSPYSGVSNYNQKFKGRVTMTRDTSTSTVYMELSSLRSEDTAVYYCARFDNMDRGYVRDYWGQGTLVTVS VL: DIVMTQSPDSLAVSLGERATINCRASESVDNDRISFLNWYQQKPGQPPKLLIYAATKQGTGVPDRFSGSGSGTDFTLTISSLQAEDVAVYYCQQSKEFPWSFGGGTKVEIKR | 0.24 | 0.29
6G heavy chain variant 8H (N101H) (antibody, V domains shown) VH: QVQLVQSGAEVKKPGASVKVSCKASGYTFTTYAIHWVRQAPGQGLEWMGFTSPYSGVSNYNQKFKGRVTMTRDTSTSTVYMELSSLRSEDTAVYYCARFDHYDRGYVRDYWGQGTLVTVS VL: DIVMTQSPDSLAVSLGERATINCRASESVDNDRISFLNWYQQKPGQPPKLLIYAATKQGTGVPDRFSGSGSGTDFTLTISSLQAEDVAVYYCQQSKEFPWSFGGGTKVEIKR | 0.19 | 
6G heavy chain variant 6F (R104S) (antibody, V domains shown) VH: QVQLVQSGAEVKKPGASVKVSCKASGYTFTTYAIHWVRQAPGQGLEWMGFTSPYSGVSNYNQKFKGRVTMTRDTSTSTVYMELSSLRSEDTAVYYCARFDNYDSGYVRDYWGQGTLVTVS VL: DIVMTQSPDSLAVSLGERATINCRASESVDNDRISFLNWYQQKPGQPPKLLIYAATKQGTGVPDRFSGSGSGTDFTLTISSLQAEDVAVYYCQQSKEFPWSFGGGTKVEIKR | 0.62 | 2.28
6G heavy chain variant 9E (N101R) (antibody, V domains shown) VH: QVQLVQSGAEVKKPGASVKVSCKASGYTFTTYAIHWVRQAPGQGLEWMGFTSPYSGVSNYNQKFKGRVTMTRDTSTSTVYMELSSLRSEDTAVYYCARFDRYDRGYVRDYWGQGTLVTVS VL: DIVMTQSPDSLAVSLGERATINCRASESVDNDRISFLNWYQQKPGQPPKLLIYAATKQGTGVPDRFSGSGSGTDFTLTISSLQAEDVAVYYCQQSKEFPWSFGGGTKVEIKR | 0.26 | 
6G light chain variant 2H (Q93K) (antibody, V domains shown) VH: QVQLVQSGAEVKKPGASVKVSCKASGYTFTTYAIHWVRQAPGQGLEWMGFTSPYSGVSNYNQKFKGRVTMTRDTSTSTVYMELSSLRSEDTAVYYCARFDNYDRGYVRDYWGQGTLVTVS VL: DIVMTQSPDSLAVSLGERATINCRASESVDNDRISFLNWYQQKPGQPPKLLIYAATKQGTGVPDRFSGSGSGTDFTLTISSLQAEDVAVYYCKQSKEFPWSFGGGTKVEIKR | 0.13 | 0.07
6G heavy chain variant 10G (Y102I) (antibody, V domains shown) VH: QVQLVQSGAEVKKPGASVKVSCKASGYTFTTYAIHWVRQAPGQGLEWMGFTSPYSGVSNYNQKFKGRVTMTRDTSTSTVYMELSSLRSEDTAVYYCARFDNIDRGYVRDYWGQGTLVTVS VL: DIVMTQSPDSLAVSLGERATINCRASESVDNDRISFLNWYQQKPGQPPKLLIYAATKQGTGVPDRFSGSGSGTDFTLTISSLQAEDVAVYYCQQSKEFPWSFGGGTKVEIKR | 0.22 | 0.63
6G heavy chain variant 4D (R104Q) (antibody, V domains shown) VH: QVQLVQSGAEVKKPGASVKVSCKASGYTFTTYAIHWVRQAPGQGLEWMGFTSPYSGVSNYNQKFKGRVTMTRDTSTSTVYMELSSLRSEDTAVYYCARFDNYDQGYVRDYWGQGTLVTVS VL: DIVMTQSPDSLAVSLGERATINCRASESVDNDRISFLNWYQQKPGQPPKLLIYAATKQGTGVPDRFSGSGSGTDFTLTISSLQAEDVAVYYCQQSKEFPWSFGGGTKVEIKR | 1 | 2.45

The remaining lines, values ahead:

A450 ELISA (Aβ1-42 peptide) [A450] | A450 ELISA (Aβ1-40 peptide) [A450] | Binder
0.05 | 0.05 | 6G light chain variant 6C (E97G) (antibody, V domains shown) VH: QVQLVQSGAEVKKPGASVKVSCKASGYTFTTYAIHWVRQAPGQGLEWMGFTSPYSGVSNYNQKFKGRVTMTRDTSTSTVYMELSSLRSEDTAVYYCARFDNYDRGYVRDYWGQGTLVTVS VL: DIVMTQSPDSLAVSLGERATINCRASESVDNDRISFLNWYQQKPGQPPKLLIYAATKQGTGVPDRFSGSGSGTDFTLTISSLQAEDVAVYYCQQSKGFPWSFGGGTKVEIKR
0.9 | 2.6 | 6G light chain variant 8G (E97V) (antibody, V domains shown) VH: QVQLVQSGAEVKKPGASVKVSCKASGYTFTTYAIHWVRQAPGQGLEWMGFTSPYSGVSNYNQKFKGRVTMTRDTSTSTVYMELSSLRSEDTAVYYCARFDNYDRGYVRDYWGQGTLVTVS VL: DIVMTQSPDSLAVSLGERATINCRASESVDNDRISFLNWYQQKPGQPPKLLIYAATKQGTGVPDRFSGSGSGTDFTLTISSLQAEDVAVYYCQQSKVFPWSFGGGTKVEIKR
0.13 | 0.08 | 6G light chain variant 3A (Q93P) (antibody, V domains shown) VH: QVQLVQSGAEVKKPGASVKVSCKASGYTFTTYAIHWVRQAPGQGLEWMGFTSPYSGVSNYNQKFKGRVTMTRDTSTSTVYMELSSLRSEDTAVYYCARFDNYDRGYVRDYWGQGTLVTVS VL: DIVMTQSPDSLAVSLGERATINCRASESVDNDRISFLNWYQQKPGQPPKLLIYAATKQGTGVPDRFSGSGSGTDFTLTISSLQAEDVAVYYCPQSKEFPWSFGGGTKVEIKR
1.34 | 2.41 | 6G light chain variant 6D (E97T) (antibody, V domains shown) VH: QVQLVQSGAEVKKPGASVKVSCKASGYTFTTYAIHWVRQAPGQGLEWMGFTSPYSGVSNYNQKFKGRVTMTRDTSTSTVYMELSSLRSEDTAVYYCARFDNYDRGYVRDYWGQGTLVTVS VL: DIVMTQSPDSLAVSLGERATINCRASESVDNDRISFLNWYQQKPGQPPKLLIYAATKQGTGVPDRFSGSGSGTDFTLTISSLQAEDVAVYYCQQSKTFPWSFGGGTKVEIKR
0.85 | 2.6 | 6G light chain variant 5H (E97R) (antibody, V domains shown) VH: QVQLVQSGAEVKKPGASVKVSCKASGYTFTTYAIHWVRQAPGQGLEWMGFTSPYSGVSNYNQKFKGRVTMTRDTSTSTVYMELSSLRSEDTAVYYCARFDNYDRGYVRDYWGQGTLVTVS VL: DIVMTQSPDSLAVSLGERATINCRASESVDNDRISFLNWYQQKPGQPPKLLIYAATKQGTGVPDRFSGSGSGTDFTLTISSLQAEDVAVYYCQQSKRFPWSFGGGTKVEIKR
 | 0.09 | 6G light chain variant 7E (Q94R) (antibody, V domains shown) VH: QVQLVQSGAEVKKPGASVKVSCKASGYTFTTYAIHWVRQAPGQGLEWMGFTSPYSGVSNYNQKFKGRVTMTRDTSTSTVYMELSSLRSEDTAVYYCARFDNYDRGYVRDYWGQGTLVTVS VL: DIVMTQSPDSLAVSLGERATINCRASESVDNDRISFLNWYQQKPGQPPKLLIYAATKQGTGVPDRFSGSGSGTDFTLTISSLQAEDVAVYYCQRSKEFPWSFGGGTKVEIKR
 | 0.12 | 6G light chain variant 6E (E97P) (antibody, V domains shown) VH: QVQLVQSGAEVKKPGASVKVSCKASGYTFTTYAIHWVRQAPGQGLEWMGFTSPYSGVSNYNQKFKGRVTMTRDTSTSTVYMELSSLRSEDTAVYYCARFDNYDRGYVRDYWGQGTLVTVS VL: DIVMTQSPDSLAVSLGERATINCRASESVDNDRISFLNWYQQKPGQPPKLLIYAATKQGTGVPDRFSGSGSGTDFTLTISSLQAEDVAVYYCQQSKPFPWSFGGGTKVEIKR
 | 0.08 | 6G light chain variant 10E (S95L) (antibody, V domains shown) VH: QVQLVQSGAEVKKPGASVKVSCKASGYTFTTYAIHWVRQAPGQGLEWMGFTSPYSGVSNYNQKFKGRVTMTRDTSTSTVYMELSSLRSEDTAVYYCARFDNYDRGYVRDYWGQGTLVTVS VL: DIVMTQSPDSLAVSLGERATINCRASESVDNDRISFLNWYQQKPGQPPKLLIYAATKQGTGVPDRFSGSGSGTDFTLTISSLQAEDVAVYYCQQLKEFPWSFGGGTKVEIKR
 | 0.09 | 6G light chain variant 5B (Q94G) (antibody, V domains shown) VH: QVQLVQSGAEVKKPGASVKVSCKASGYTFTTYAIHWVRQAPGQGLEWMGFTSPYSGVSNYNQKFKGRVTMTRDTSTSTVYMELSSLRSEDTAVYYCARFDNYDRGYVRDYWGQGTLVTVS VL: DIVMTQSPDSLAVSLGERATINCRASESVDNDRISFLNWYQQKPGQPPKLLIYAATKQGTGVPDRFSGSGSGTDFTLTISSLQAEDVAVYYCQGSKEFPWSFGGGTKVEIKR
 | 0.12 | 6G light chain variant 7F (Q94K) (antibody, V domains shown) VH: QVQLVQSGAEVKKPGASVKVSCKASGYTFTTYAIHWVRQAPGQGLEWMGFTSPYSGVSNYNQKFKGRVTMTRDTSTSTVYMELSSLRSEDTAVYYCARFDNYDRGYVRDYWGQGTLVTVS VL: DIVMTQSPDSLAVSLGERATINCRASESVDNDRISFLNWYQQKPGQPPKLLIYAATKQGTGVPDRFSGSGSGTDFTLTISSLQAEDVAVYYCQKSKEFPWSFGGGTKVEIKR
